Assay results as given in US20250262210A1 (TRUSTEES OF COLUMBIA UNIVERSITY IN THE CITY OF NEW YORK, published 2025).

Key:
Assay in all cases: IP/MS, LZTR1 R810W-FLAG, U87
[1] = biological target: SKIV2L (human, UniProt Q15477 1-1246)
Outline: (§1)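 Gel slices were reduced with 5 mM DTT, alkylated with 11 mM IAA and digested overnight at 37° C. with trypsin. Peptides were analysed on an Orbitrap Fusion Tribrid by LC-MS/MS.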

[2] = biological target: CDC42BPA (human, UniProt Q5VT25 1-1732, limits assumed)
Outline: as §1

[3] = biological target: IFT172 (human, UniProt Q9UG01 1-1749, limits assumed)
Sequence of IFT172 (Q9UG01 whole entry): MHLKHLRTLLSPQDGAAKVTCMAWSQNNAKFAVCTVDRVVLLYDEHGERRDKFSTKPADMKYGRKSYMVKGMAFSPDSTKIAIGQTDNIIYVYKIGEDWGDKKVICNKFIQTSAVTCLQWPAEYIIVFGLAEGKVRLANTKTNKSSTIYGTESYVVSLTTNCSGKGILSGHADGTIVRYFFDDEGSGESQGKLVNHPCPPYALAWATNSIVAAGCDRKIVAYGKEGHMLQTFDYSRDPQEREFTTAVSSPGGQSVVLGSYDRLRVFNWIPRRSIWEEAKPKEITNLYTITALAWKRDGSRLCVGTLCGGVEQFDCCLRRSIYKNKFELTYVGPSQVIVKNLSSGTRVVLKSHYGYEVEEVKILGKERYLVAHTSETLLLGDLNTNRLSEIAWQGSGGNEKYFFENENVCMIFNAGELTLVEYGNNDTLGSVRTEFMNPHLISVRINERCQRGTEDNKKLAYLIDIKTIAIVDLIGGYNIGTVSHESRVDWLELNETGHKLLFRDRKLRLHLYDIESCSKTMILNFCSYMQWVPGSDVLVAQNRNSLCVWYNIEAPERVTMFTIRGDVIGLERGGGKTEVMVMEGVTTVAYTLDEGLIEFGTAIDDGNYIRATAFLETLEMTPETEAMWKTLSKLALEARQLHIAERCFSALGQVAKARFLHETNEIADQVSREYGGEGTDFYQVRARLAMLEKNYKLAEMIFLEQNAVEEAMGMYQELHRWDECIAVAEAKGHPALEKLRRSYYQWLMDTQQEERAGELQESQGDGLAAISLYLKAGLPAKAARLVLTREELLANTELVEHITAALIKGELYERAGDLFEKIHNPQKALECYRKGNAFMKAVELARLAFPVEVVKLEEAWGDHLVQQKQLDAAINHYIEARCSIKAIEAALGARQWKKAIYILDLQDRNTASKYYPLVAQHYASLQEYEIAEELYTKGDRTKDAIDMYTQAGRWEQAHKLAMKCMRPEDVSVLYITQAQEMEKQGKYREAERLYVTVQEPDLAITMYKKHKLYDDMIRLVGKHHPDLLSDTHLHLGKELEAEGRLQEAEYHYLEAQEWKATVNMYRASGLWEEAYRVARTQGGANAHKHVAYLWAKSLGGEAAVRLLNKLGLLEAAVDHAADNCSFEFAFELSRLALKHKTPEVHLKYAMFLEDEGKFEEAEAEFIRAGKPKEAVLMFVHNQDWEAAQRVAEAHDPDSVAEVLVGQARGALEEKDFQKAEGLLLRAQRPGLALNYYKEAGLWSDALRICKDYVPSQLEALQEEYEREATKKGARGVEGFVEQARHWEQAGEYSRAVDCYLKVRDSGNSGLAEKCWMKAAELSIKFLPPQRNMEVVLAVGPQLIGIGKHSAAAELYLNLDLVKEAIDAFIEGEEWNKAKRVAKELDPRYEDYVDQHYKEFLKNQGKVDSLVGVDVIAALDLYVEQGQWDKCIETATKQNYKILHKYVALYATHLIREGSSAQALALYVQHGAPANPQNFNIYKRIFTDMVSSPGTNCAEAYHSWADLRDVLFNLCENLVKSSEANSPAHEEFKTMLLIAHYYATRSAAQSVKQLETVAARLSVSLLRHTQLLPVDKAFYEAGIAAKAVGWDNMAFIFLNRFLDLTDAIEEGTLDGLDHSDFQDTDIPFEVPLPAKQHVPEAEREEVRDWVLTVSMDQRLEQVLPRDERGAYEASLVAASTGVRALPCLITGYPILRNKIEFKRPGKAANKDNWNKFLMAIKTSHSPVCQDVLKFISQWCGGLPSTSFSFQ
Outline: as §1

[4] = biological target: KDM5C (human, UniProt P41229 1-1560, limits assumed)
Sequence of KDM5C (P41229 whole entry): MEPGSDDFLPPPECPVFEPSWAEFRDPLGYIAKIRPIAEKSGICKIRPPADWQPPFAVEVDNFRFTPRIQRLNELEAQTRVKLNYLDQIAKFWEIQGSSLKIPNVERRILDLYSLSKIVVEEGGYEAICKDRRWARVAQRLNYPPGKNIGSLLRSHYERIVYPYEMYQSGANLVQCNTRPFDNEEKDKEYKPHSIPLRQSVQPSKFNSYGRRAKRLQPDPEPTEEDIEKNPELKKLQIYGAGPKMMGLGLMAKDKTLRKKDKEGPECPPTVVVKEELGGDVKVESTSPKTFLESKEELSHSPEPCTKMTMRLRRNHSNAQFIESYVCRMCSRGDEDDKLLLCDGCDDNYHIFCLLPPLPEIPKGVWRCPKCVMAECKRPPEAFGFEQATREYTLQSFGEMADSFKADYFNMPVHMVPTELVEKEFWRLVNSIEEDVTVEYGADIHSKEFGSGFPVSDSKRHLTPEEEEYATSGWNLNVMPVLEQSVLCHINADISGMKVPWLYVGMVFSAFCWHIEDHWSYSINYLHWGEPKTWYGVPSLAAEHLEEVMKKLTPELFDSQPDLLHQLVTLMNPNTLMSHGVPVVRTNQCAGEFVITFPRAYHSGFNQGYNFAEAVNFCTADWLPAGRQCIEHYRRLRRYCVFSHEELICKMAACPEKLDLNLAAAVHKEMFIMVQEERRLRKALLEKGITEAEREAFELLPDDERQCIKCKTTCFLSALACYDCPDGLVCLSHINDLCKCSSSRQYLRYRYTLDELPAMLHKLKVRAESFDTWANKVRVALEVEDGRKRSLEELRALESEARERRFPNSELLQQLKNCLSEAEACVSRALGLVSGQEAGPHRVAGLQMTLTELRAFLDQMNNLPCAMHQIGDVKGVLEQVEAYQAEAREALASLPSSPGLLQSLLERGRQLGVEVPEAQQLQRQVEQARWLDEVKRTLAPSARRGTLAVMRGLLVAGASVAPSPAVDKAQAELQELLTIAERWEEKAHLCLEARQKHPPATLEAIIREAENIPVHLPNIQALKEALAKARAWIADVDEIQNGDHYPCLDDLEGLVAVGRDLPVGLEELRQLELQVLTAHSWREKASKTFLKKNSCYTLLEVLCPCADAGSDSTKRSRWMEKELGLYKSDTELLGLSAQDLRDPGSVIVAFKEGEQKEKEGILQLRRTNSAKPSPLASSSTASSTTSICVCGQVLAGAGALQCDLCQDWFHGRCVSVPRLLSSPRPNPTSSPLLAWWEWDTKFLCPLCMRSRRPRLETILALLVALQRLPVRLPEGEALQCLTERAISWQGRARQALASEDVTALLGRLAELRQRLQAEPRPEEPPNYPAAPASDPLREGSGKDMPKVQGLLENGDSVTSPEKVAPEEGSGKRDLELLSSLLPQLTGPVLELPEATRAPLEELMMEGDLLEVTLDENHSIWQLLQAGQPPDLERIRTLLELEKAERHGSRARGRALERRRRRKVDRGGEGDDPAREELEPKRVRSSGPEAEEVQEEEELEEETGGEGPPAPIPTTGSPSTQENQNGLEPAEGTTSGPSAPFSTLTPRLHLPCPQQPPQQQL
Outline: as §1

[5] = biological target: KIF1B (human, UniProt O60333 2-1816, limits assumed)
Outline: as §1

[6] = biological target: T1, ZCCHC6 (human, UniProt Q5VYS8 1-1495, limits assumed)
T1 sequence (looked up): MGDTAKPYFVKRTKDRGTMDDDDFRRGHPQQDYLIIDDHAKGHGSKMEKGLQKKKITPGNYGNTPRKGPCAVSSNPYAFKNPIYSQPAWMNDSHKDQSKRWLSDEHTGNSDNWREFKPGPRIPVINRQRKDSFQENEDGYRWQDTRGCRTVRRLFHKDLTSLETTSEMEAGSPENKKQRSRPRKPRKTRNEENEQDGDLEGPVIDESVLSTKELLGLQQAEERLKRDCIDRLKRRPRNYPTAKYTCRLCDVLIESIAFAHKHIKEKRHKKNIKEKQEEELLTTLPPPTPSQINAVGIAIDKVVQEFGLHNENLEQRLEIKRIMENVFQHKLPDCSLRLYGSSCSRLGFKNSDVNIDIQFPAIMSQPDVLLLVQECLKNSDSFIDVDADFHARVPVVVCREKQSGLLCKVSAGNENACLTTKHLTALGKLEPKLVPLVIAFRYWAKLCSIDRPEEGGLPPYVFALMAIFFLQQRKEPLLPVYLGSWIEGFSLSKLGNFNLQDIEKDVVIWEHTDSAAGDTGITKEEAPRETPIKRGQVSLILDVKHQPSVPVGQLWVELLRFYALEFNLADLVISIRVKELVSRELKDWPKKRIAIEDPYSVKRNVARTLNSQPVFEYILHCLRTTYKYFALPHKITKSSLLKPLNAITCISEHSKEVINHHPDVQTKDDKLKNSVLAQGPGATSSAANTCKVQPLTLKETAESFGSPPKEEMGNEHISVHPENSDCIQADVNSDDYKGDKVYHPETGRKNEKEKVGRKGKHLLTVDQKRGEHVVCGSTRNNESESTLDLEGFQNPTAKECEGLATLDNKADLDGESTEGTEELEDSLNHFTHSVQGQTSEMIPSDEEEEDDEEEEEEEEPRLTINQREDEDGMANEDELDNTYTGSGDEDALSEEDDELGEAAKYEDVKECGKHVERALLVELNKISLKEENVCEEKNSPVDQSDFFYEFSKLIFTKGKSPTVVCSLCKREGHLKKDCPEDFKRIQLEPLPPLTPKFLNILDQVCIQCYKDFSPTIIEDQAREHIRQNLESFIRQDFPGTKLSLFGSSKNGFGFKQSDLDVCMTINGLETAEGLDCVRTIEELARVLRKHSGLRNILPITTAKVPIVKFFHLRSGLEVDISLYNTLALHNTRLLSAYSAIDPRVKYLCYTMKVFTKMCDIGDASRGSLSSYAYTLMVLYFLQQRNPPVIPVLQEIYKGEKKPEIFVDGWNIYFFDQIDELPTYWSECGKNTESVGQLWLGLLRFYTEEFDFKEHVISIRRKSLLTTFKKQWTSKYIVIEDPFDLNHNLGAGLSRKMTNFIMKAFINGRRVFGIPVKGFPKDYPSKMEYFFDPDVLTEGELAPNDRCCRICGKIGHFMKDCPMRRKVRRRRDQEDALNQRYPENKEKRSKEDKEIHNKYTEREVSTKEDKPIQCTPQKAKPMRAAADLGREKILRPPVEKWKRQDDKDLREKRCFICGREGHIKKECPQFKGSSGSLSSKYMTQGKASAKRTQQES
Outline: as §1

[7] = biological target: BRCA2 (human, UniProt P51587 1-3418)
Outline: as §1

Measured: binding result

Sequence of SKIV2L (Q15477 whole entry, the tested form may be a part): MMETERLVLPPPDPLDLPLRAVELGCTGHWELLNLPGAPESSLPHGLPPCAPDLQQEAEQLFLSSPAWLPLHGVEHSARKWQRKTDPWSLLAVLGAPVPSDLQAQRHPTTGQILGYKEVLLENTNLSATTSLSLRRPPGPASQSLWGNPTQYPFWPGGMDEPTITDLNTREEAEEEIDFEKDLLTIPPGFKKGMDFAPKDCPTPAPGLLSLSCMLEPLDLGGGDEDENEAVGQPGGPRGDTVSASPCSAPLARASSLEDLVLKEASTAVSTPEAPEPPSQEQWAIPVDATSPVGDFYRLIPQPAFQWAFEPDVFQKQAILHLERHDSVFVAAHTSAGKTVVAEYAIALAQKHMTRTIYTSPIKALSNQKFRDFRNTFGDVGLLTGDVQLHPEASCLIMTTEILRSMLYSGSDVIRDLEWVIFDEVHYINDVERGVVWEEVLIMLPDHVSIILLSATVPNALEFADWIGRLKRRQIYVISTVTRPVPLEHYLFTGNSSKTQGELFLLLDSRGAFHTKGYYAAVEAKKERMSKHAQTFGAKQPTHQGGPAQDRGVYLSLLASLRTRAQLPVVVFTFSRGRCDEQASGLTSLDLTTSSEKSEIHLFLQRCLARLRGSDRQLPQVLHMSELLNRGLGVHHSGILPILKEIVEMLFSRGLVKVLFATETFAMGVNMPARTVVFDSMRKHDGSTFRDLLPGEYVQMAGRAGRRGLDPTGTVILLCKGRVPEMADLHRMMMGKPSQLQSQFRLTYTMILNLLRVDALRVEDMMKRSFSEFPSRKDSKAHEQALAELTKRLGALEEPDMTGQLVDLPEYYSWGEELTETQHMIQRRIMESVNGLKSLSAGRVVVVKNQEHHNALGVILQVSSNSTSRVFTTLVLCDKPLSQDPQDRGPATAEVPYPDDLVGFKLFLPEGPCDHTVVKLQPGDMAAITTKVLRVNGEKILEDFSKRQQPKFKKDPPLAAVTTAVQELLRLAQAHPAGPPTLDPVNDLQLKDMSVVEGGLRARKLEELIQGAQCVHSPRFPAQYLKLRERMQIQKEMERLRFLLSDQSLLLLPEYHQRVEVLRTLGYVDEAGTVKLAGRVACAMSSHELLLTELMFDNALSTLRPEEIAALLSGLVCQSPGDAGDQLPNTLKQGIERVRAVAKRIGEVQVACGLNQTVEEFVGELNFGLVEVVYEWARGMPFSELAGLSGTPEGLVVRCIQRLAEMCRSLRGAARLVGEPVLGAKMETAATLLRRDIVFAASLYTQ

B1: LZTR1 R810W-FLAG (other, human, UniProt Q8N653 1-840, looked up)
chain: MAGPGSTGGQIGAAALAGGARSKVAPSVDFDHSCSDSVEYLTLNFGPFETVHRWRRLPPCDEFVGARRSKHTVVAYKDAIYVFGGDNGKTMLNDLLRFDVKDCSWCRAFTTGTPPAPRYHHSAVVYGSSMFVFGGYTGDIYSNSNLKNKNDLFEYKFATGQWTEWKIEGRLPVARSAHGATVYSDKLWIFAGYDGNARLNDMWTIGLQDRELTCWEEVAQSGEIPPSCCNFPVAVCRDKMFVFSGQSGAKITNNLFQFEFKDKTWTRIPTEHLLRGSPPPPQRRYGHTMVAFDRHLYVFGGAADNTLPNELHCYDVDFQTWEVVQPSSDSEVGGAEVPERACASEEVPTLTYEERVGFKKSRDVFGLDFGTTSAKQPTQPASELPSGRLFHAAAVISDAMYIFGGTVDNNIRSGEMYRFQFSCYPKCTLHEDYGRLWESRQFCDVEFVLGEKEECVQGHVAIVTARSRWLRRKITQARERLAQKLEQEAAPVPREAPGVAAGGARPPLLHVAIREAEARPFEVLMQFLYTDKIKYPRKGHVEDVLLIMDVYKLALSFQLCRLEQLCRQYIEASVDLQNVLVVCESAARLQLSQLKEHCLNFVVKESHFNQVIMMKEFERLSSPLIVEIVRRKQQPPPRTPLDQPVDIGTSLIQDMKAYLEGAGAEFCDITLLLDGHPRPAHKAILAARSSYFEAMFRSFMPEDGQVNISIGEMVPSRQAFESMLRYIYYGEVNMPPEDSLYLFAAPYYYGFYNNRLQAYCKQNLEMNVTVQNVLQILEAADKTQALDMKRHCLHIIVHQFTKVSKLPTLWSLSQQLLLDIIDSLASHISDKQCAELGADI
notes: Stably expressed in U87 cells by lentivirus; also called LZTR1-FLAG-R810W; LZTR1 RW; not shown: FLAG tag
binds: [1] | [2] | [3] | [4] | [5] | [6] | [7]
